Test results: US20130065278A1 (SPIBER TECHNOLOGIES, published 2013)

T1: NT-REP4-CT
T1 construct: also called NT4RepCT; NT-REP4-CT fiber
T1 chain: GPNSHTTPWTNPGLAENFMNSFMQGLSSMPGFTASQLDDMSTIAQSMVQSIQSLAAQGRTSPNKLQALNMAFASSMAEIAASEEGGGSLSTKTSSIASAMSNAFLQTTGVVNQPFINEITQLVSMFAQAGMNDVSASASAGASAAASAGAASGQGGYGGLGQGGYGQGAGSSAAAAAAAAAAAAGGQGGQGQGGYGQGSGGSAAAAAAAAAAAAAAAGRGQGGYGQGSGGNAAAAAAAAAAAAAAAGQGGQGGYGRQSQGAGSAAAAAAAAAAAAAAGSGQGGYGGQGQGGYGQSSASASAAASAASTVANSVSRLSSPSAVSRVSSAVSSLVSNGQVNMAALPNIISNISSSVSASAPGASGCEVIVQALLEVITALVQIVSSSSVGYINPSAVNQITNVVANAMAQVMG

T2: NT2-REP4-CT
T2 construct: also called NTNT-REP4-CT; HisNTNT4RepCT
T2 chain: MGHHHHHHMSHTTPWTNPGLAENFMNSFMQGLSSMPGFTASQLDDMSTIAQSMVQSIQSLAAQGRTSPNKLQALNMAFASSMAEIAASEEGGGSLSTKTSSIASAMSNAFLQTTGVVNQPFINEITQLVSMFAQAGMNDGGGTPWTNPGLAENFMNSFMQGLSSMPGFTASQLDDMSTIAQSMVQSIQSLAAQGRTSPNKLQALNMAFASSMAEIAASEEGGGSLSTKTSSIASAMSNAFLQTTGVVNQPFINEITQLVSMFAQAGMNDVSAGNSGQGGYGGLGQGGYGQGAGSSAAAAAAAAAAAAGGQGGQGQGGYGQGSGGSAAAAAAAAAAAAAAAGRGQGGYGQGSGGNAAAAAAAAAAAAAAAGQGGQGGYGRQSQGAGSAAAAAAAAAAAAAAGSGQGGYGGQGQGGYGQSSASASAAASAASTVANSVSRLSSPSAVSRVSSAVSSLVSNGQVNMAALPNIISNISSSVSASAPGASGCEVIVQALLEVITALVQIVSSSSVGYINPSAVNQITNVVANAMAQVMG

B1: NTHis (other)
chain: MSHTTPWTNPGLAENFMNSFMQGLSSMPGFTASQLDDMSTIAQSMVQSIQSLAAQGRTSPNKLQALNMAFASSMAEIAASEEGGGSLSTKTSSIASAMSNAFLQTTGVVNQPFINEITQLVSMFAQAGMNDVSASASAGASAAASAGAAALEHHHHHH
notes: also called soluble NTHis; NT protein
B2: NT2-Brichos (other)
chain: MGHHHHHHMSHTTPWTNPGLAENFMNSFMQGLSSMPGFTASQLDDMSTIAQSMVQSIQSLAAQGRTSPNKLQALNMAFASSMAEIAASEEGGGSLSTKTSSIASAMSNAFLQTTGVVNQPFINEITQLVSMFAQAGMNDGGGTPWTNPGLAENFMNSFMQGLSSMPGFTASQLDDMSTIAQSMVQSIQSLAAQGRTSPNKLQALNMAFASSMAEIAASEEGGGSLSTKTSSIASAMSNAFLQTTGVVNQPFINEITQLVSMFAQAGMNDVSAGNSEHLVTTATFSIGSTGLVVYDYQQLLIAYKPAPGTCCYIMKIAPESIPSLEALTRKVHNFQMECSLQAKPAVPTSKLGQAEGRDAGSAPSGGDPAFLGMAVSTLCGEVPLYYI
notes: also called NT-NT-Brichos; HisNTNTBrichos

Key:
NT-REP4-CT = biological target: T1, NT-REP4-CT; assay: capture of soluble protein on fiber at pH 6, release at pH 7, SDS-PAGE; 300 mM NaCl decreased capture
Experimental: (§1) Fibers (˜0.5 cm long, ˜50 μg) of NT-REP₄-CT (SEQ ID NO 20), NT₂-REP₄-CT (SEQ ID NO 23) and REPO-CT (SEQ ID NO 2, control) were submerged in 100 μl solution of 5 mg/ml soluble NTHis (SEQ ID NO 32) or NT₂-Brichos (SEQ ID NO 34) at pH 8 for 10 minutes. The pH was decreased by addition of 400 μl sodium phosphate buffer (NaP) to pH 6 and incubated for 10 minutes to allow assembly of soluble NT to the fiber. The fibers were transferred to 500 μl of NaP at pH 6, and washed twice. Finally, the fibers were transferred to 500 μl of NaP at pH 7, and incubated 10 minutes to allow release of soluble NT. The same was done in the presence of 300 mM NaCl in all pH 6 NaP buffers. Samples from the different solutions were analysed on SDS-PAGE.

NT2-REP4-CT = biological target: T2, NT2-REP4-CT; assay: as above
Experimental: as §1

Binder | binding result (NT-REP4-CT) | binding result (NT2-REP4-CT)
B1 | binds | binds
B2 | binds | binds
